# Laboratory results from PMC3602593.
# Target: DARPin H10-2-G3
# Experiment: SPR; G3 DARPin amine-coupled (about 1,200 RU) on a GLC chip, ProteOn XPR36; HER2 constructs injected as analyte (One-Shot Kinetics, 30 uL/min, 120 s); 25°C; HBS-EBP+ (10 mM HEPES, 150 mM NaCl, 3 mM EDTA, 0.1% BSA, 0.05% Tween 20); global fit to a 1:1 model, KD = kd/ka
Substance,Kd [nM],koff [s⁻¹],kon [M⁻¹ s⁻¹]
"human epidermal growth factor receptor 2 (HER2) extracellular domain, residues 1-623, wild type (from UniProt P04626 23-645) (domain or fragment)",3.3,0.00107,322000
"HER2 extracellular domain, residues 1-623, Val 552→Ala (from UniProt P04626 23-645) (domain or fragment)",380,0.064,169000
"HER2 extracellular domain, residues 1-623, Ser 551→Ala (from UniProt P04626 23-645) (domain or fragment)",12.8,0.0035,285000

# Further substances by falling Kd, results first:
Kd [nM],koff [s⁻¹],kon [M⁻¹ s⁻¹],Substance
265,0.0393,149000,"HER2 extracellular domain, residues 1-623, Leu 525→Ala (from UniProt P04626 23-645) (domain or fragment)"
210,0.0384,184000,"HER2 extracellular domain, residues 1-623, Phe 555→Ala (from UniProt P04626 23-645) (domain or fragment)"
